This assay concerns the target TrkB receptor (mouse neuromuscular junction) (mouse) (UniProt P15209). Kind of assay: cell-based or functional assay.
UniProt P15209, sequence (P15209 32-821): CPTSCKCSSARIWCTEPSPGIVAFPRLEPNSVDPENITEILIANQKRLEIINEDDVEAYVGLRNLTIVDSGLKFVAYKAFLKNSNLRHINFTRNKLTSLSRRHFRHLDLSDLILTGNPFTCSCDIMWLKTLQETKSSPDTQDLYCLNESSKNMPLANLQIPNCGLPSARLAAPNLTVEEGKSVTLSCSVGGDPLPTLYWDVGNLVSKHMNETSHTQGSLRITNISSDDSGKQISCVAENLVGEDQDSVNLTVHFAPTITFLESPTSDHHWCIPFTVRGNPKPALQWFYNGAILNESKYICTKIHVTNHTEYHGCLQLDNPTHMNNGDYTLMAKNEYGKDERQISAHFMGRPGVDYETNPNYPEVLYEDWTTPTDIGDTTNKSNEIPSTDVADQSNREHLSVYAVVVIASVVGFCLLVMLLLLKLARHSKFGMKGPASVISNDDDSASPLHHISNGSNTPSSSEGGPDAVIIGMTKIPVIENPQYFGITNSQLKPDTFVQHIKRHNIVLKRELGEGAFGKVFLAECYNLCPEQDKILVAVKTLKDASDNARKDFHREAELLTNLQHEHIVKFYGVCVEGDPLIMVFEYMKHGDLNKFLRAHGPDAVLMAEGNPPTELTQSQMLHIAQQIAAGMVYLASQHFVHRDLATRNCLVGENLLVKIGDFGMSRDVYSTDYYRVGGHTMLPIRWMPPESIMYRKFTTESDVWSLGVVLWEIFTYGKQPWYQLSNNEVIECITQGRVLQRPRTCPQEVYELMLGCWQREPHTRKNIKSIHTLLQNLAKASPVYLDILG

As to “recombinant human BDNF (Alomone labs) (from UniProt P23560 129-247) (ligand)”, the elevation in the level of GFP-TTC concentration at the NMJ (100 ng BDNF) is 1.72 fold, the elevation in the level of GFP-TTC concentration at the NMJ (250 ng BDNF) worked out at 1.15 fold and the increase of GFP-TTC signal at the NMJ after BoTx/A block is 2.05 fold.
On to “recombinant human NT-4 (Alomone labs) (from UniProt P34130 81-210) (ligand)”, for which the GFP-TTC localization at the NMJ came to 1.54 fold.

Source of the values: patent US20070092449A1.
